# Reference: PMC3585358, “Identification and Multidimensional Optimization of an Asymmetric Bispecific IgG Antibody Mimicking the Function of Factor VIII Cofactor Activity” (PLoS ONE, 2013)
# B1: anti-FIXa monospecific IgG of hBS910 (anti-FIXa heavy chain and common light chain) (antibody, V domains shown)
# VH: QVQLVESGGGLVQPGGSLRLSCAASGFTFSYYDIQWVRQAPGKGLEWVSSISPSGQSTYYRREVKGRFTISRDNSKNTLYLQMNSLRAEDTAVYYCARRTGREYGGGWYFDYWGQGTLVTVSS
# VL: DIQMTQSPSSLSASVGDRVTITCKASRNIERQLAWYQQKPGQAPELLIYQASRKESGVPDRFSGSRYGTDFTLTISSLQPEDIATYYCQQYSDPPLTFGGGTKVEIK
# notes: as the anti-FIXa heavy chain of m1; as the common light chain of m1; The SPR methods say that monospecific antibodies were captured; also called monospecific anti-FIXa antibody; anti-FIXa homodimeric antibody; source: HEK293 cells, transfected; filtrated culture supernatants or Protein A purified antibodies; copies: 2 + 2
# B2: anti-FX monospecific IgG of hBS910 (anti-FX heavy chain and common light chain) (antibody, V domains shown)
# VH: QVQLVQSGSELKKPGASVKVSCKASGYTFTDNNMDWVRQAPGQGLEWMGDINTRSGGSIYNEEFQDRVIMTVDKSTDTAYMELSSLRSEDTATYHCARRKSYGYYLDEWGEGTLVTVSS
# VL: B1 VL
# notes: as the anti-FX heavy chain of m1; as the common light chain of m1; The SPR methods say that monospecific antibodies were captured; also called monospecific anti-FX antibody; anti-FX homodimeric antibody; source: HEK293 cells, transfected; filtrated culture supernatants or Protein A purified antibodies; copies: 2 + 2
# Experiments:
# human factor IXa = target: T1, human factor IXa (Homo sapiens, UniProt P00740); assay: SPR; Biacore T200; anti-FIXa or anti-FX monospecific antibodies captured on MabSelect SuRe Ligand (recombinant Protein A) immobilized on a CM4 chip; natalizumab (human IgG4) on the reference cell; 0, 80, 160, 320, 640 or 1,280 nM human FIXa or FX injected at 30 uL/min; 10 mM HEPES pH 7.4, 150 mM NaCl, 0.05% surfactant P20, 2.5 mM CaCl2; conditions: both partners purified
# T1 construct: also called FIXa; source: bought: Enzyme Research Laboratories (purified human coagulation factors; the source is stated for the enzymatic assay)
# T1 sequence (P00740 47-191, chain 1 of 2): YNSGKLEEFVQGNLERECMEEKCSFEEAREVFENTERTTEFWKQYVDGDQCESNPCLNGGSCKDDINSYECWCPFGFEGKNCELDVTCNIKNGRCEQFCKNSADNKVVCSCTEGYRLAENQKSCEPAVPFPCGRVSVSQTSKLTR
# T1 sequence (P00740 227-461, chain 2 of 2): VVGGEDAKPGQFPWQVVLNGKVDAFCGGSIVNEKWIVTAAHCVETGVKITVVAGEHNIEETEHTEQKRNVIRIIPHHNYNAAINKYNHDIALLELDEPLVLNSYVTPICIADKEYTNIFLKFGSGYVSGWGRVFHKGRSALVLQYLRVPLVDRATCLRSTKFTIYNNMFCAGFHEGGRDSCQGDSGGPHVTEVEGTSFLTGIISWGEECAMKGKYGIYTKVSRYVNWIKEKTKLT
# human factor X = target: T2, human factor X (Homo sapiens, UniProt P00742); assay: as above; conditions: both partners purified
# T2 construct: human coagulation factor X (zymogen), light chain; also called FX; source: bought: Enzyme Research Laboratories (purified human coagulation factors; the source is stated for the enzymatic assay)
# T2 sequence (P00742 41-179, chain 1 of 2): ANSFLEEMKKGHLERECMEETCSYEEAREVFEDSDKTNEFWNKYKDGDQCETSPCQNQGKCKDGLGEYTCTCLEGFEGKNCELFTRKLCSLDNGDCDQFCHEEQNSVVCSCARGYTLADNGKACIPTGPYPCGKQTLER
# T2 sequence (P00742 183-488, chain 2 of 2): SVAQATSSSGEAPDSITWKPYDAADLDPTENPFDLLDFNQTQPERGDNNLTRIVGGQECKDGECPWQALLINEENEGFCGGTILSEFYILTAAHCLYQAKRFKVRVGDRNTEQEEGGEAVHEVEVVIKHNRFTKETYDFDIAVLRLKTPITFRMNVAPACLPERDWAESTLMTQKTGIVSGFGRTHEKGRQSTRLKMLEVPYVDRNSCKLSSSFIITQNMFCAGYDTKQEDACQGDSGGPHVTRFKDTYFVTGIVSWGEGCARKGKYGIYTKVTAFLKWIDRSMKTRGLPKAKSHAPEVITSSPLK
Binder,binding result (human factor IXa),binding result (human factor X)
B1,binds,
B2,,binds
